B1: Probable E3 ubiquitin-protein ligase MID2, residues 191 to 235; numbered along this chain, Q9UJV3 (parent)
chain: RGITCLDHENEKVNMYCVSDDQLICALCKLVGRHRDHQVASLNDR

Variants of: B1
Assay: abundance fitness (aPCA) (normalised: wild type 0, dead -1); higher = more abundant; growth selection in yeast, the domain comes from the species named
Settings: Homo sapiens

Abundance fitness: each site, then its substitutions
K29: D -0.211; N 0.153; F -0.132; L -0.286; I -0.037; E -0.039; Q -0.016; H -0.032; C -0.144; W 0.018; S 0.059; G 0.097; V -0.149; M -0.029; P -0.054; Y -0.079; A 0.063; R 0.07
L30: Y -0.071; P -0.136; S 0.189; C 0.026; H -0.012; E 0.096; T 0.089; G 0.13; W -0.095; N 0.078; K 0.348; A 0.159; V 0.003; F -0.022; Q 0.109; M 0.003; D 0.183
I24: T -0.122; K -0.105; A -0.104; S -0.179; P 0.196; C -0.436; E -0.141; V 0.058; D -0.121; R -0.373; M -0.104; G -0.269; Q -0.006; H -0.197
R33: C -0.28; I -0.106; F -0.764; M -0.046; L -0.026; V -0.073; P 0.038; N -0.127; S -0.112; K 0.084; Q -0.006; T -0.024; E -0.022
G32: I -0.459; T -0.339; C -0.589; D -0.337; K -0.316; R -0.537; W -0.954; S -0.408; L -0.684; E -0.248; A -0.518; V -0.474; Q -0.472; M -0.899; H -0.185
C28: Y -1.14; P -0.439; G -0.58; M -0.942; R -1.05; S -0.678; Q -0.505; K -0.906; D -0.469; V -1.11; T -0.541; E -0.897; A -0.805; W -0.997
A26: P -0.018; E 0.031; Q -0.017; F -0.277; T -0.068; R 0.006; V -0.174; I -0.621; M -0.359; D 0.13; G 0.103; Y -0.092; L -0.296; K -0.051; S -0.006; H -0.169
C25: A -1.12; W -1.92; E -0.786; T -0.526; L -1.34; K -0.951; V -1.03; D -0.834; N -1.14; R -1.2; Q -1.02; Y -0.841; S -1.03; G -0.805; P -0.417; F -0.468
V31: W -0.428; G 0.107; F -0.046; T 0.131; Y -0.117; P 0.014; L -0.122; Q 0.152; D -0.022; I -0.091; M -0.104; E 0.149; H 0.108; S 0.06; K 0.131; N 0.184
L27: I -0.466; G -0.058; D -0.029; E 0.144; V 0.039; K 0.517; M -0.012; P -0.215; W -0.145; Q 0.263; N 0.311; T -0.144; H -0.03; F 0.099; S 0.052; Y -0.263
L23: V 0.006; Q 0.099; E 0.137; R 0.023; N 0.352; T -0.046; W -0.038; K 0.213; M 0.199; P 0.144; H -0.074; S -0.009

Reference: the Human Domainome abundance scans (Beltran et al. 2025)
